From the RNAGym collection of RNA variant scans (doi:10.1093/nar/gkz1192)

B1: CPEB3 Ribozyme (parent)
chain: UAACAGGGGGCCACAGCAGAAGCGUUCACGUCGCAGCCCCUGUCAGAUUCUGGUGAAUCUGCGAAUUCUGCUGUAUAUCUC

Variants of: B1
Experiment: self-cleavage, relative activity (ratio to wild type); higher = more cleavage; in vitro, sequencing
Method in brief: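 Relative activity compares each variant's cleaved/total read fraction with that of the unmutated ribozyme. To get these fractions, barcoded CPEB3 ribozyme libraries from rounds of error-prone PCR were transcribed with T7 RNA polymerase for 5 hours at 37°C and then given 15 min of DNase I treatment before EDTA was added. The RNAs were reverse transcribed with template switching and sequenced on Illumina, and DNA sequencing linked barcodes to variants. A minimum of 5 reads applied, and three batches were averaged.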

| Variant | self-cleavage |
| --- | --- |
| UAACAGGGGGCCCCAGCAGAAGCGUUCACGUCGCAGCCCCUGUCAGAUUCUGGUGAAUCUGCGAAUUCUGCUGUAUAUCUC | 0.96 |
| UAACAGGGGGCUACAGCAGAAGCGUUCACGUCGCAGCCCCUGUCAGAUUCUGGUGAAUCUGCGAAUUCGGCUGUAUAUCUC | 1.18 |
| UAACAGGGGGCUACAGCAGAAGCGUUCACGUCGCAGCCCCUGUCAGAUUCUGGUGAAUCUGCGAAUUCAGCUGUAUAUCUC | 0.95 |
| UAACAGGGGGCUACAGCAGAAGCGUUCACGUCGCAGCCCCUGUCAGAUUCUGGUGAAUCUGCGAAUUCCGCUGUAUAUCUC | 0.96 |
| UAACAGGGGGCUACAGCAGAAGCGUUCACGUCGCAGCCCCUGUCAGAUUCUGGUGAAACUGCGAAUUCUGCUGUAUAUCUC | 0.9 |
| UAACAGGGGGCUACAGCAGAAGCGUUCACGUCGCAGCCCCUGUCAGAUUCUGGUGAACCUGCGAAUUCUGCUGUAUAUCUC | 1.03 |
| UAACAGGGGGCUACAGCAGAAGCGUUCACGUCGCAGCCCCUGUCAGAUUCUGGUGAAUCUGCGAACUCUGCUGUAUAUCUC | 0.71 |
| UAACAGGGGGCUACAGCAGAAGCGUUCACGUCGCAGCCCCUGUCAGAUUCUGGUGAAUCUGCGAAUUCUGCUGUAUACCUC | 1.23 |
| UAACAGGGGGCUACAGCAGAAGCGUUCACGUCGCAGCCCCUGUCAGAUUCUGGUGAAUCUGCGAAUUCUGCUGUAUAACUC | 1.28 |
| UAACAGGGGGCUACAGCAGAAGCGUUCACGUCGCAGCCCCUGUCAGAUUCUGGGGAAUCUGCGAAUUCUGCUGUAUAUCUC | 1.01 |
| UAACAGGGGGCUACAGCAGAAGCGUUCACGUCGCAGCCCCUGUCAGAUUCUGGUGAAUCUGCGAAUUCUGCUGUAUAUCAC | 1.26 |
| UAACAGGGGGCUACAGCAGAAGCGUUCACGUCGCAGCCCCUGUCAGAUUCUGGUGAAUCUGCGAAUUCUGCUGUAUAUCCC | 1.23 |
| UAACAGGGGGCCCCAGCAGGAGCGUUCACGUCGCAGCCCCUGUCAGAUUCUGGUGAAUCUGCGAAUUCUGCUGUAUAUCUC | 0.72 |
| UAACAGGGGGCCCCAGCAGAAGCGUUCGCGUCGCAGCCCCUGUCAGAUUCUGGUGAAUCUGCGAAUUCUGCUGUAUAUCUC | 0.62 |
| UAACAGGGGGCCCCAGCAGAAGCGUUCUCGUCGCAGCCCCUGUCAGAUUCUGGUGAAUCUGCGAAUUCUGCUGUAUAUCUC | 0.76 |
| UAACAGGGGGCUACAGCAGAAGCGUUCACGUCGCAGCCCCUGUCAGAUUCUGGUGAAUCUGCGAAUUCUGCUGAAUAUCUC | 1.3 |
| UAACAGGGGGCUACAGCAGAAGCGUUCACGUCGCAGCCCCUGUCAGAUUCUGGUGAAUCUGCGAAUUCUGCUGGAUAUCUC | 1.25 |

| Variant | self-cleavage |
| --- | --- |
| UAACAGGGGGCUACAGCAGAAGCGUUCACGUCGCAGCCCCUGUCAGAUUCUGGUGAAUCUGCGAAUUCUGCCGUAUAUCUC | 1.24 |
| UAACAGGGGGCUACAGCAGAAGCGUUCACGUCGCAGCCCCUGUCAGAUUCUGGUGAAUCUGCGAAUUCUGCAGUAUAUCUC | 1.1 |
| UAACAGGGGGCUACAGCAGAAGCGUUCACGUCGCAGCCCCUGUCAGAUUCUGGUGAAUCUGCGAAUACUGCUGUAUAUCUC | 0.86 |
| UAACAGGGGGCUACAGCAGAAGCGUUCACGUCGCAGCCCCUGUCAGAUUCUGGUGAAUCUGCGAAUCCUGCUGUAUAUCUC | 0.3 |
| UAACAGGGGGCUACAGCAGAAGCGUUCACGUCGCAGCCCCUGUCAGAUUCUGGUGAAUCUGCGAAUGCUGCUGUAUAUCUC | 0.95 |
| UAACAGGGGGCCCCAGCAGAUGCGUUCACGUCGCAGCCCCUGUCAGAUUCUGGUGAAUCUGCGAAUUCUGCUGUAUAUCUC | 0.49 |
| UAACAGGGGGCCCCAGCGGAAGCGUUCACGUCGCAGCCCCUGUCAGAUUCUGGUGAAUCUGCGAAUUCUGCUGUAUAUCUC | 0.67 |
| UAACAGGGGGCCCCAGCUGAAGCGUUCACGUCGCAGCCCCUGUCAGAUUCUGGUGAAUCUGCGAAUUCUGCUGUAUAUCUC | 0.25 |
| UAACAGGGGGCCCCAGCAGAAGCGUUCACGUCGCUGCCCCUGUCAGAUUCUGGUGAAUCUGCGAAUUCUGCUGUAUAUCUC | 0.42 |
| UAACAGGGGGCCCCAGCAGAAGCGUUCACGUCGCGGCCCCUGUCAGAUUCUGGUGAAUCUGCGAAUUCUGCUGUAUAUCUC | 1.22 |
| UAACAGGGGGCCCCAGCAGAAGCGUUCACGUCGCAGCCCCUGUCUGAUUCUGGUGAAUCUGCGAAUUCUGCUGUAUAUCUC | 0.44 |
| UAACAGGGGGCUACAGCAGAAGCGUUCACGUCGCAGCCCCUGUCAGAUUCUGGUGAAUCUGCGAAUUCUGCUGUACAUCUC | 1.31 |
| UAACAGGGGGCCCCUGCAGAAGCGUUCACGUCGCAGCCCCUGUCAGAUUCUGGUGAAUCUGCGAAUUCUGCUGUAUAUCUC | 1 |
| UAACAGGGGGCCCCGGCAGAAGCGUUCACGUCGCAGCCCCUGUCAGAUUCUGGUGAAUCUGCGAAUUCUGCUGUAUAUCUC | 1.07 |
| UAACAGGGGGCUACAGCAGAAGCGUUCACGUCGCAGCCCCUGUCAGAUUCUGGUGAAUCCGCGAAUUCUGCUGUAUAUCUC | 0.95 |
| UAACAGGGGGCUACAGCAGAAGCGUUCACGUCGCAGCCCCUGUCAGAUUCUGGUGAAUCAGCGAAUUCUGCUGUAUAUCUC | 1.04 |
| UAACAGGGGGCUACAGCAGAAGCGUUCACGUCGCAGCCCCUGUCAGAUUCUGGUGAAUCGGCGAAUUCUGCUGUAUAUCUC | 0.46 |
